Source: US20250066510A1 (Janssen / Centocor, published 2025)

Assays:
[1] = biological target: T1, human GUCY2C (guanylyl cyclase C) (human, UniProt P25092 24-1073); experiment: cell-based or functional assay
human CD3 [2] = biological target: T2, human CD3 (human, UniProt P07766 23-207); experiment: flow cytometry on primary T cells
T2 construct: also called CD3 epsilon; CD3 on primary human T cells

[3] = biological target: T1, human GUCY2C (guanylyl cyclase C); experiment: flow cytometry on T84 cells
Method: One hour cell binding studies by flow cytometry were carried out at physiologically relevant temperature (37° C.) on GUCY2CxCD3 bispecific antibodies (GUCY2CxCD3 biAb-1 and GUCY2CxCD3_biAb-2), known reference GUCY2CxCD3 bispecific antibody (biAb), and Null×CD3 control molecules. The goal was to characterize and quantify specific, cell binding for GUCY2CxCD3_biAb-1 and 2. […] Maximum binding of GUCY2CxCD3 biAb-1 and 2 was higher than reference biAb.

human CD3 [4] = biological target: T2, human CD3; experiment: flow cytometry based Intellicyt assay on human pan T cells, MFI, 4PL fit; lower end of the printed range 108-112 nM
Method: The affinity of CD3_spFv-1 to T cells was measured by flow cytometry based Intellicyt assay. Briefly, pan T cells were isolated from PBMC from healthy donors. Cells were incubated with titrating amounts test molecules for 1 hour, then washed. […] Cells were then washed and resuspended in 0.10% pluronic acid containing Sytox Green, then immediately analyzed in a flow cytometer. Median fluorescent intensity (MFI) was recorded (on RL1-A). The log 10 of the molecule concentration was plotted against the MFI. Best fit curves were evaluated using a 4PL algorithm (log(agonist) vs. response—Variable slope) in GraphPad Prism 9.0.

cynomolgus monkey CD3 = biological target: T3, cynomolgus monkey CD3 (cynomolgus monkey, UniProt Q95LI5 22-198); experiment: not described at this place; the sentence refers to 'example 2'
T3 construct: whole, on cells; also called cynomolgus CD3
T3 sequence (Q95LI5 22-198): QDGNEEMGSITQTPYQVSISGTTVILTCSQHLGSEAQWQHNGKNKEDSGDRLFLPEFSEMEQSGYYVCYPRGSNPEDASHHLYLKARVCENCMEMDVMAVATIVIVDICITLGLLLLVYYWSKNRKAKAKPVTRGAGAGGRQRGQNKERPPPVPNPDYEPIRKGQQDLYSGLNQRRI

[5] = biological target: T1, human GUCY2C (guanylyl cyclase C); experiment: flow cytometry on CHO-huGUCY2C cells
Method: Three (3) cell lines, Chinese hamster ovary (CHO) cell line, CHO transfected with cyno GUCY2C, and CHO transfected with human GUCY2C, were incubated with a titrating dose of GUCY2C_mAb for 60 min at 37° C., washed twice, then incubated with AF647 labeled anti human secondary for 30 minutes at 4° C. Cells were washed twice again, resuspended and acquired in a flow cytometer. Specific antibody binding was assessed in the RL1H channel for each cell line. Data presented as signal/background where background is secondary only.

T1 sequence (P25092 other isoform, or with tags, fused parts or gaps limits assumed): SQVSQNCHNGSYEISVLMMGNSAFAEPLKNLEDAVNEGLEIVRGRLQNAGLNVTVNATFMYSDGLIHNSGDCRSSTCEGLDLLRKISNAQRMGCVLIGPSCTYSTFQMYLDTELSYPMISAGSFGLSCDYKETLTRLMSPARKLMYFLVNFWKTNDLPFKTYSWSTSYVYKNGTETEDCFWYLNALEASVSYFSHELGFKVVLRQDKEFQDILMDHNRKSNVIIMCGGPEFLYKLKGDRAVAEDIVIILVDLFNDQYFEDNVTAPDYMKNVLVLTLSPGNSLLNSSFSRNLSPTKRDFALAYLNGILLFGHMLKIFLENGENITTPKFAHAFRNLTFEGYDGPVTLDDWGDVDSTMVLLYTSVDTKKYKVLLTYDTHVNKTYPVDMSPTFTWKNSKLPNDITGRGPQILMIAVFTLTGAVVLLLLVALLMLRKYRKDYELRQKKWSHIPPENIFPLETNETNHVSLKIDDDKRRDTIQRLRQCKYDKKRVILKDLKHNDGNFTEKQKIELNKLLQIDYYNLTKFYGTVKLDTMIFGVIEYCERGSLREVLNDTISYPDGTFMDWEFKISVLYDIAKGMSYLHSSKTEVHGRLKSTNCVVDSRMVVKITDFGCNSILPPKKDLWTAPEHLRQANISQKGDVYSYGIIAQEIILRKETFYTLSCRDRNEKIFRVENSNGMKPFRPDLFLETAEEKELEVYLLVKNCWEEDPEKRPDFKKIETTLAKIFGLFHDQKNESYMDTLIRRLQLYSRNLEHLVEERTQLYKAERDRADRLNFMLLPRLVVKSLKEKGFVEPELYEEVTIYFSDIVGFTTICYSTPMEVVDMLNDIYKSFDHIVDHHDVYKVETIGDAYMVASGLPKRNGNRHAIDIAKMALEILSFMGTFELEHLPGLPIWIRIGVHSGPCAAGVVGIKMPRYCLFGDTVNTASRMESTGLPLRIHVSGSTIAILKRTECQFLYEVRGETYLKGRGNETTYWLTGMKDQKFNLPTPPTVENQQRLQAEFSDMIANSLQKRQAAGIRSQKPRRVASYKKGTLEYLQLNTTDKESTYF
T2 sequence (P07766 23-207 limits assumed): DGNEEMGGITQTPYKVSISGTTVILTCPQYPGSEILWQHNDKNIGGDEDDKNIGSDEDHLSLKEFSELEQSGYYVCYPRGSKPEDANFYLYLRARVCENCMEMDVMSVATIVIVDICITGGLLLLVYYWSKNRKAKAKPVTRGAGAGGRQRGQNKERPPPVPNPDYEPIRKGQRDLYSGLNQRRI

B1: GUCY2CxCD3_biAb-1 (bispecific antibody, human IgG1, kappa, L234A L235A)
heavy: QVQLQESGPGLVKPSETLSLTCTVSGASISHYYWSWIRRPAGKGLEWIGRIYTSGSTNYNPSLKSRVTVSVDTSKNQFSLKLSSVTAADTAVYYCARDRYTGYFDLWGRGTLVTVSSASTKGPSVFPLAPSSKSTSGGTAALGCLVKDYFPEPVTVSWNSGALTSGVHTFPAVLQSSGLYSLSSVVTVPSSSLGTQTYICNVNHKPSNTKVDKKVEPKSCDKTHTCPPCPAPEAAGGPSVFLFPPKPKDTLMISRTPEVTCVVVSVSHEDPEVKFNWYVDGVEVHNAKTKPREEQYNSTYRVVSVLTVLHQDWLNGKEYKCKVSNKALPAPIEKTISKAKGQPREPQVYTLPPSREEMTKNQVSLSCAVKGFYPSDIAVEWESNGQPENNYKTTPPVLDSDGSFFLVSKLTVDKSRWQQGNVFSCSVMHEALHNRFTQKSLSLSPGK
light: not shown
chain: EIVLTQSPATLSASPGERVTLSCSASSSVSYMNWYQQKPGCAPRRWIYDSSKLASGVPARFSGSGSGRDYTLTISSLEPEDFAVYYCQQWSRNPPTFGGGTKVEIKGGGSGGSGGCPPCGGSGGQVQLVQSGAEVKKPGSSVKVSCKASGYTFTRSTMHWVKQAPGQGLEWIGYINPSSAYTNYNQKFQGRVTLTADKSTSTAYMELSSLRSEDTAVYYCASPQVHYDYAGFPYWGCGTLVTVSSEPKSSDKTHTCPPCPAPEAAGGPSVFLFPPKPKDTLMISRTPEVTCVVVSVSHEDPEVKFNWYVDGVEVHNAKTKPREEQYNSTYRVVSVLTVLHQDWLNGKEYKCKVSNKALPAPIEKTISKAKGQPREPQVYTLPPSREEMTKNQVSLWCLVKGFYPSDIAVEWESNGQPENNYKTTPPVLDSDGSFFLYSKLTVDKSRWQQGNVFSCSVMHEALHNHYTQKSLSLSPGK
notes: HC1/LC1 form the GUCY2C Fab arm (IgG1, L234A/L235A/D265S, hole T366S/L368A/Y407V); HC2 is CD3_spFv-1 (VL2-linker-VH2) fused to IgG1 Fc (L234A/L235A/D265S, knob T366W); also called GUCY2CxCD3 bisp-Ab1; GUCY2C-CD3-bisp-Abl
- Tumor killing EC50 (nM), HT-55 [1]: 0.8 nM
- Tumor killing EC50 (nM), LS1034 [1]: 0.04 nM
- EC50 (human CD3 [2]): 108 nM
- EC50 [3]: 12 nM

B2: CD3_spFv-1 (scFv)
scFv: EIVLTQSPATLSASPGERVTLSCSASSSVSYMNWYQQKPGCAPRRWIYDSSKLASGVPARFSGSGSGRDYTLTISSLEPEDFAVYYCQQWSRNPPTFGGGTKVEIKGGGSGGSGGCPPCGGSGGQVQLVQSGAEVKKPGSSVKVSCKASGYTFTRSTMHWVKQAPGQGLEWIGYINPSSAYTNYNQKFQGRVTLTADKSTSTAYMELSSLRSEDTAVYYCASPQVHYDYAGFPYWGCGTLVTVSS
notes: also called CD3 arm of GUCY2CxCD3_biAb-1; anti-CD3 spFv
- EC50 (human CD3 [4]): 108 to 112 nM
- binding result (cynomolgus monkey CD3): no binding

B3: GUCY2C_mAb (antibody, V domains shown)
VH: QVQLQESGPGLVKPSETLSLTCTVSGASISHYYWSWIRRPAGKGLEWIGRIYTSGSTNYNPSLKSRVTVSVDTSKNQFSLKLSSVTAADTAVYYCARDRYTGYFDLWGRGTLVTVSS
VL: not shown
notes: From Ablexis Kappa mice, so a kappa light chain; also called GUCYC2_mAb
- EC50 [5]: 4.6 nM
